Experimental data as given in the DeepSol protein solubility set.

Assay: soluble on expression in E. coli; label from the status in PepcDB or PDB records

Sequence	soluble on expression in E. coli
MISAQSLTRPQLRRQLRKARRVLTRSQQRAAARGLYQQLAQHPLFRRARHVSLYLPMDGEIDPRLLLREAQRRGKATYLPVLNAWPRTRMVFQRVRPGEKFIPNRFRIPEPRINRTKQRPVWALDLVLMPLVGFDDEGGRLGMGGGFYDRSLAYLARRKTWRKPALLGLAHECQKVDRLAQAIWDVPLQGTVSDKQWYLTQRLLEHHHHHH	not soluble
TSKQRYSGKVHLCVARYSYNPFDGPNENPEAELPLTAGKYLYVYGDMDEDGFYEGELLDGQRGLVPSNFVDFVQDNESRLAST	soluble
MSKFTIGPLPCKNPESFTKLSAKKDTVRKTEPVEVVCRNVEGENNGECYKIKAPKTPFIINHLEKNYIPKPKETTKKRRAGEAGGVKREHSTSESDDQLEDANQPSTSSQQSSSRKKQRNQQDI	not soluble
MKHFSVKRLLGLSSVLLVTLGASMHAQSYLPKHESVTLKNGLQVVSVPLENKTGVIEVDVLYKVGSRNETMGKSGIAHMLEHLNFKSTKNLKAGEFDKIVKRFGGVSNASTSFDITRYFIKTSQANLDKSLELFAETMGSLNLKEDEFLPERQVVAEERRWRTDNSPIGMLYFRFFNTAYVYHPYHWTPIGFMDDIQNWTLKDIKKFHSLYYQPKNAIVLVVGDVNSQKVFELSKKHFESLKNLDEKAIPTPYMKEPKQDGARTAVVHKDGVHLEWVALGYKVPAFKHKDQVALDALSRLLGEGKSSWLQSELVDKKRLASQAFSHNMQLQDESVFLFIAGGNPNVKAEALQKEIVALLEKLKKGEITQAELDKLKINQKADFISNLESSSDVAGLFADYLVQNDIQGLTDYQRQFLDLKVSDLVRVANEYFKDTQSTTVFLKP	not soluble
MSLARVELHVHLDGAVGVEELYNISVKRRLQLPGGVKSAAELQAYIIRISPAWHRFDVVNDIIGGDEAVIRDVAEGFVGRQARAGIVYTEVRYDPERLSRSGLANVSISRQAAVRAVRDGLRVGAEKHGVVAYQILCAMRGKSAEQCMATATLAAQMRSTSMGGVVGLDLAGDEVTYRNAPYVGCLRYAKRDLRLNITVHSGEFTETPADEVRSAVVDMGADRVGHGYAAVRNAATLSLVKERLIHVEACPRSAQLHGDLDALDEYRRAQLNFGLNTDDPSVFFGNGTIALDEAIVQDVLHYSVDEVRNAYANALSAAFGPTSAIPGLLRGSAPIVVEGHHHHHH	soluble
MSETELVGKDELLKAMTMCNSCPDFNLNDLRGKGDNNYQLYDWLIHNLPTAQYVLGKLVELIFSNNLTTGDEKQDEILNNFLYGQTNPEGVTNYHVLVQSIKESIVYGRSGLRFLSKDDGLINVKCNHFGVAQILNKEHYGYKELIGFVIDKKGRAITDVDLREGEIDSEEYFKKGIFVFKNNDNILLPPEKFVNLRVDTSTPKGSSVFDSDIQRVLLIASVYKRLLYDIEYDGAGRLIFWADNANSNEESSNNFLNDTESATKRRQDKYKKEVEEIMKLVKDSNSTSVLAVSNAFKKMDHLPRVTKATEFLSYLNQEGEIMAQVFGVPNVLLGLGKISGNISMEKVIDNAMLNSIIPLRENIATQISSILTNNLKVPKVYFDKYELKSQSDINDRRLKVLTVAERLKALGKEDLANKIIEEEIQL	not soluble
MGSDKIHHHHHHMQILTVQMNIAGEWRDVAVVGFYAPEKGTGGPCVLNYDIEHVTSYFHQFAQTAVSVSLPVDNIPLRSPHWHRFLEDIMPAGSSRDYWVKRLGLQDMPNLERDFQLLKYGTIAPIGNLRIKESVPEKAKKSLPVTFSIADVSELQIDFIEYAQSRGAAAGGASGAGGAAPKLLVRLNEQQGVWIDTFQDDPRNLDQPYLVKFPRGKTTLDSDILRAEYHFYHELTQLGFETISVESMKLIEVERGPSLWLPRFDYGVEAGAMVSYGMESVYAILGEPTAKPLLHADVIRRLLAEFNKKENYGNTRTPLDVEAGLEGKSGIEAFVVEWVRRDLLNIAFGNSDNHGRNTSFIKHGNRVQLAPIYDFAPMKADYEMITRTFTWGEGMELGGVYNFPAIAEHLSDLLSPNDLMSALNETAVRLLGLELRLRQRGVPESILAHSGIGFATLEARMQQWGLL	not soluble
MIVSFMENYSDALNDIFQSLADPTRRAVILRLGGGEASIGTLAEPFAMALPSFMKHIRQLEEAGLIVTRKQGRVRFCSLEKQRFSMLDGWLSQQRAVWEGRTDRLEQFVMAQQDRMSSKGENDQ	not soluble
MQKLKQQVFDANMDLPRYGLVTFTWGNVSAIDRERGLVVIKPSGVAYETMKVDDMVVVDMDGKVVEGRYRPSSDTATHLALYQRYPSLGGVVHTHSTHATAWAQAGMAIPALGTTHADYFFGDIPCTRALSEEEVQGEYELNTGKVIIETLGEVEPLHTPGIVVYQHGPFAWGKDAHDAVHNAVVMEEVARMAWIARGINPALNPIDDYLMNKHFMRKHGPNAYYGQK	not soluble
EHEICAGETGVPLATDTIMLSRQVSFDRIRLLSGVSNDELQLLNPQYKRGIIPGNTQLCRLRLPVASIKKLDKVRDSLYSPDLEASVSDFPEQGGQHSGGSGRTAIFHNVKQGETLLSIAKRYGTTVAAIKRANGLKSSSVKPGQRLQITKSSASGTKKKSKYSAKRKSRRRK	not soluble
MGSDKIHHHHHHMTSSPTSTQESSTSWYLLLQQLIDGESLSRSQAAELMQGWLSEAVPPELSGAILTALNFKGVSADELTGMAEVLQSQSKMGTGENYSQLPITNSPFSIIDTCGTGGDGSSTFNISTAVAFVAAAYGVPVAKHGNRSASSLTGSADVLEALGVNLGASPEKVQAALQEVGITFLFAPGWHPALKAVATLRRTLRIRTVFNLLGPLVNPLRPTGQVVGLFTPKLLTTVAQALDNLGKQKAIVLHGRERLDEAGLGDLTDLAVLSDGELQLTTINPQEVGVTPAPIGALRGGDVQENAEILKAVLQGKGTQAQQDAVALNAALALQVAGAVPLLDHAQGVSVAKEILQTGTAWAKLAQLVYFLGN	soluble
MSLTDQKPVPVFDGHNDVLLRLWRSGNTSPETLLIEGDTVGHIDLPRARKGGLAGGLCAIYVPSPSMEKDANGDFSTPTEADALKATLGMAALLFRAEKQSAGALKVCRTAADIRSAMAEGAFASVFHIEGAEAIGDDLDALHVLHEAGLRTLGPVWSRPNIFAYGVPFRFPSTPDIGPGLTDTGKRLVKTCNELKIMVDLSHMNEQGFWDIAKISDAPLVASHSNAYALCNHSRNLTEGHHHHHH	soluble
MSKEYHIRELIMRLARLDVSESWAEDLNPAQRAVLEYLSRANKFSRSPSHVAAFLGTTRGTISQTFKALLQKNYVTEKRSQSDKRVISFDLTQKGRALLARPRLLISGLESLDSSEQNALLSTLQSTLNSLLEQNKGQPFGLCKECRHFTSSNGGGYCNLLSEKLAPPETEQICHEQDPL	not soluble
DSGYSRETRALLFRAYRHDPTFAYLFNAEREGYEQRVLATIRQLVKQHFLQNQPALGLFLEDRLVGVALIAPPLRRLGVTESWAWRLRMVMDTGLGCTQRYLAYYNAVLACLPSETVHVLPLIGLDPEFQGQKMGQDLSEQLLAALHDWCAVDENSQGIVVDTGNPRYLEFYKRQGYEEIGEIAVGPV	not soluble
MAYRDRGMQKWQGMILSEHTEQLEQAKRKLSWLPQQSEECLVEILSYAVTKQHAITIQRLTEDENGYPLPFVVGRIVGVEDDRIYMRDMAGEITVLTFDDINHISEGTIEKWYR	not soluble
MTVRILAVCGNGQGSSMIMKMKVDQFLTQSNIDHTVNSCAVGEYKSELSGADIIIASTHIAGEITVTGNKYVVGVRNMLSPADFGPKLLEVIKAHFPQDVK	not soluble
MDNDGINADPMELEKFSQLAHHWWDPNSEFKPLHEINPLRLNYIDEIIGGLSEKTVIDVGCGGGILSESMAARGASVTGIDLSDKALKVAKLHLLESGNQVDYRKITVEALATERPRYYDVVTCMEMLEHVPDPASVIQSCARLVKSGGWVFFSTLNRNPKSYLYAIIGAEYILRLLPRGTHEYAKFIKPSELAHMARSAGLMESGIVGMTYNPITKVYALEADTSVNYIMAFRA	not soluble
AIALRADKPKCSIQNFFIPALGKDPNSRDNTTLNFMVRCDNPNKDKGIYYDDVHLNFSTINTTKINSSALVLVGNYTVPKFYQGHKKKAKKWGQVKPLNNQTVLRAVLPNGSAVFRLDLKTQVRFKIVFWKTKRYGVEVGADVEVNGDGVKAQKKGIKMKKS	soluble
AKKIGIEQSLSDVEAALKEKGYDVVMMKSPADAQGCDCCVVTGLDNNVQGIADTVTQAPVITASGMTAEEICSEVESRIQ	not soluble
MGSDKIHHHHHHMTSILPLPDPQPSDATNTDTSSLNWEEELDSAIFSFEDIQAELNYKQAQSALRNLVGNIDLSSQEKAGLESEIADLETMLGKLDSMVVQIAAFGMVGRGKSSLLNALVGESVFETGPLHGVTRAAQRVNWRISEEAIGETERALRVTLPSVGRSQVELIDTPGLDEIDGETRTALAEQIAKQADLILFVISGDMTKIEHEALSQLREAGKPIILVFNKVDQYPEADRMAIYQKIRDERVRELLTPLEIVMAAASPLVKTAVRRPDGSRGVQVRTGNAQVAELQVKILEILQREGKALVALNTMLFADNVNEQLVQRKLMIREQNANQLIWKAVMTKAVAIALNPVTVVDILSSIVIDVSLILGLSKLYGIPMTEAGAVQLLQKIALSMGGIGVSELLANLGLSGLKTLLGISATATAGVAIGPYISVALTQAGVAGVSSYAIGQVTTVYLANGATWGPDGPKAVINRILSTLDENSILNRIKDELQVKLRRE	not soluble
PIGKSADNMYSYLALVQDDPTVQVVNMAQKAYVEHYIQGDPDLAKLPVLSAAAPFKVGGRKNDPASFVEVEKGQLTFRNAADLYLYPNTLVVMKVSGKEVKEWLECSAGQFNQIDPASSKPQSLINWDGFRTYNFDVIDGVNYQIDVTQPARYDGECQMIHPQAERIKHLTFNGKPVDPQATFLVATNNYRAYGGKFAGTGESHIAFASPDENRSVLAAWIGAQSKKEGAIHPAADNNWRLAPI	not soluble
MSLTRDEIAKYYEAHKGQFVSGRKVRLGLVIFPPRDDADALAAQVKSGAMTFADLAARHSIGPNPQNGGVIGDLLWSDLSMEWRDTLSELKPGDVSRVFLVEGRKAVLQLVASNEGKGQALDDVAEEIENILREPKMQERLQEYIGQLRSRAVIDIREGHHHHHH	soluble
MGSDKIHHHHHHMSQIPVAEKLVGALSSGLAVLRYLAGMPTPVGVTRVARDLELNSSTCFNLLKTLVHEGLVTFDERTKTYTIGIGLVELAKGALDQASFARLLRPQLESIAQQHKVTATLWERTRNERVVLVDLADNPAAMRVHMSIGQRLPMYLAALGRCMAAYSELSADELRTRIESFRWENAPSFEEYYAEVQDVKERGYAVDNGNYVKGVTTVSAPVIDANKRAVMAISAVSFSAQLNRAAIRALGEDLGARAIEASRAISGRVRAA	not soluble
MNEKVFRDPVHTYIHVNNQVIYDLINTKEFQRLRRIKQTSTTSFTFHGAEHS	not soluble
MWDVKDIEQLSFARGLAIDETNDHQYKLTYQNLLPQSEDSQASGKPEFVNVTSHGKTILEAVSDVSIKDPPVYSDHLKVILLGEKLMRNQNVDQVLNHFIRDDELRRSSYLMAARGNAADVFTKGNPNQQQPMPSEKLIDLTTHSGYNGKIMIPLRIGRASVYSQNGYSYLIQAVKNEKGKAKYDGAGIIKRGSNKLVGFLSADETQTLSWVMGTIQGGVMPTTDKGHPITFEIKKSKTKIKPVIENGKPVFHISVKTKGILTEDQNPNENSFSKSYLHRLENIFEKKLERDVKQVMDKLQHEYKTDPVFLSDHIRIQHPDYWNKVKGHWDEIFSETDFKYDISFKIINFGTVGKLEHHHHHH	soluble
